T1: 5T4 (immobilised for SPR) (UniProt Q13641 32-355, limits assumed, biotinylated on the MASS-1 platform)
T1 construct: also called biotinylated 5T4
T1 sequence (looked up): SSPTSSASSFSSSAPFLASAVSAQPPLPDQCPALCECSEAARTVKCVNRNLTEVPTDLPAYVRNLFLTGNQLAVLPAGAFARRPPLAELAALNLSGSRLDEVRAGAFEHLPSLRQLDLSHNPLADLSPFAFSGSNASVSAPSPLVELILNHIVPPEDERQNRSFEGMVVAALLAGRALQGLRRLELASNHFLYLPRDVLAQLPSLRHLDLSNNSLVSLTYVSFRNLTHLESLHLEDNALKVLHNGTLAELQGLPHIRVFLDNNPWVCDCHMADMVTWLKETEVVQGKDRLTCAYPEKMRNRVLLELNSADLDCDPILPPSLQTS

T2: Human OX40 (R&D Systems, 3388-OX) (human, UniProt P43489 29-216)
T2 construct: bought; also called OX40-Fc; Human OX40 (R&D systems, #3358_OX)
T2 sequence (looked up): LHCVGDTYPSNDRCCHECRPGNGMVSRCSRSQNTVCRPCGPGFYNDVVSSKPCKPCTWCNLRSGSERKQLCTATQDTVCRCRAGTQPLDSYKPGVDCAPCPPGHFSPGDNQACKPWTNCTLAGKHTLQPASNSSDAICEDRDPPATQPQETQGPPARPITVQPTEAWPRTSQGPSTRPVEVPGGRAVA


Legend:
[1] = target: T1, 5T4 (immobilised for SPR); assay: SPR MASS-1, biotinylated 5T4 on streptavidin chip, mAb injected, 1:1 Langmuir
Method: Binding kinetics of the 5T4-specific mAbs have been studied using two different SPR-based platforms, the Biacore 3000 (GE Healthcare) and the MASS-1 platform (Sierra Sensors). Briefly, 5T4 was captured at the sensor chip surface either via direct amine coupling (Biacore platform) or using a streptavidin coated chip and biotinylated 5T4 (MASS-1 platform). The different 5T4-specific mAbs were then injected over the chip in increasing concentrations and the association and dissociation rates studied in real time. A 1:1 Langmuir model was used for curve fitting.

[2] = target: T2, Human OX40 (R&D Systems, 3388-OX); assay: dual ELISA: OX40-Fc coated, detection with biotinylated 5T4-Fc and streptavidin-HRP, luminescence
Method: A dual ELISA was used to detect simultaneous binding of the two targets by the bispecific antibodies. ELISA plates were coated with OX40-Fc (R&D systems, #3388-OX, 0.5 μg/ml) over night at 4° C. followed by blocking with PBST+2% bovine serum albumin (BSA) for 1 h at room temperature (RT). […] Biotinylated 5T4-Fc (0.5 μg/ml), followed by HRP-labelled streptavidin (Pierce #21126) were used for detection. Super signal ELISA Pico Chemiluminescent Substrate (Thermo Scientific, #37069) was used as substrate and luminescence was measured using FLUOstar Optima.

[3] = target: T3, human/mouse 5T4 chimera E5; assay: flow cytometry, cells with 5T4 chimera; % positive cells over that of the best clone
T3 construct: on stably transfected CHO cells
Method: (§1) Epitope mapping was performed by investigation of loss of binding by the antibodies using a panel of human/mouse chimeric 5T4 constructs by flow cytometry. […] Two strategies were used for the epitope mapping as illustrated in FIG. 5. In one approach, seven human/mouse 5T4 chimeras were constructed based on dividing 5T4 into seven different domains (FIG. 5). By replacing each domain with the corresponding mouse sequence seven human/mouse 7 5T4 human/mouse chimeras were generated. The chimeras were generated using the human protein 5T4 sequence NP_006661.1 (reference mRNA sequence NM_006670.4) and the corresponding mouse sequence NP_035757.2 (reference mRNA sequence NM_011627.4). The human/mouse chimeric DNA constructs, as well as human and mouse wild-type 5T4, were cloned into pcDNA3.1 expression vectors. […] In the other approach, cells transfected with a human/mouse 5T4 chimera (Woods et al., 2002) was used, in which mouse sequence in amino acid 173-420 replaced the human sequence (FIG. 5). As controls human 5T4 and mouse 5T4-transfected cells were used.
(§2) For flow cytometric analysis, cells were stained with different 5T4 antibodies diluted in FACS buffer (PBS, 0.5% BSA). […] Samples were analysed by FACSverse (BD Biosciences, Heidelberg, Germany) and % positive cells were determined. To compensate for variations in % 5T4 positive cells in the various transfected populations, binding levels were normalized within each chimera by dividing % positive cells for each clone with % positive cells for the clones resulting in the highest % positive cells (% pos cellsclonX/% positive cellsₘₐₓ). A normalized value≤0.75 was defined as mAb binding being dependent on the replaced region, whereas a normalized value≤0.25 was defined as complete dependence.

[4] = target: T4, human/mouse 5T4 chimera E7; assay: as above
T4 construct: on stably transfected CHO cells
Method: as §1, §2

[5] = target: T5, human/mouse 5T4 chimera E1; assay: as above
T5 construct: on stably transfected CHO cells
Method: as §1, §2

[6] = target: T6, human/mouse 5T4 chimera E2; assay: as above
T6 construct: on stably transfected CHO cells
Method: as §1, §2

[7] = target: T7, human/mouse 5T4 chimera E3; assay: as above
T7 construct: on stably transfected CHO cells
Method: as §1, §2

[8] = target: T8, human/mouse 5T4 chimera E6; assay: as above
T8 construct: on stably transfected CHO cells
Method: as §1, §2

[9] = target: T9, human/mouse 5T4 chimera E4; assay: as above
T9 construct: on stably transfected CHO cells
Method: as §1, §2

Binder	koff [1] [s⁻¹]	kon [1] [M⁻¹ s⁻¹]	binding result [2]	normalized % positive cells [3]	normalized % positive cells [4]	normalized % positive cells [5]	normalized % positive cells [6]	normalized % positive cells [7]	normalized % positive cells [8]	normalized % positive cells [9]
1210/1211 (antibody, IgG1, V domains shown, 5T4 antibody) VH: not shown VL: DIQMTQSPSSLSASVGDRVTITCRASQSISSYLNWYQQKPGKAPKLLIYAASSLQSGVPSRFSGSGSGTDFTLTISSLQPEDFATYYCQQTYGYLHTFGQGTKLEIK	0.00019	510000	no binding (tested: about 80 nM (log[conc ab] 1.9))	0.89	0.96	0.99	0.02	0.9	0.89	0.69
1206/1207 (antibody, V domains shown, 5T4 antibody) VH: EVQLLESGGGLVQPGGSLRLSCAASGFTFSGSSMSWVRQAPGKGLEWVSSIYYSGSGTYYADSVKGRFTISRDNSKNTLYLQMNSLRAEDTAVYYCARYGRNVHPYNLDYWGQGTLVTVSS VL: DIQMTQSPSSLSASVGDRVTITCRASQSISSYLNWYQQKPGKAPKLLIYAASSLQSGVPSRFSGSGSGTDFTLTISSLQPEDFATYYCQQGYYYLPTFGQGTKLEIK	0.00013	1.4e+06	–	0.9	0.94	0.96	0.74	0.25	0.94	0.52

Source: patent publication US20190161555A1 (ALLIGATOR BIOSCIENCE, published 2019)
